Experimental data taken from the supplement of paper PMC11811203.

B1: THAP1; numbered along this chain (parent)
chain: MVQSCSAYGCKNRYDKDKPVSFHKFPLTRPSLCKEWEAAVRRKNFKPTKYSSICSEHFTPDCFKRECNNKLLKENAVPTIFLCTEPHDKKEDLLEPQEQLPPPPLPPPVSQVDAAIGLLMPPLQTPVNLSVFCDHNYTVEDTMHQRKRIHQLEQQVEKLRKKLKTAQQRCRRQERQLEKLKEVVHFQKEKDDVSERGYVILPNDYFEIVEVPA

Variants of: B1
Experiment: THAP1 transcriptional activity (GFP+/GFP- enrichment relative to wild-type constructs) (ratio to WT); higher = more THAP1 activity (PSMB5 reporter activation)
Conditions: with PSMB5 promoter-GFP reporter
How it was run: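 A site-saturation library of human THAP1 (residues 2–213, each changed to all 20 amino acids) was transduced by lentivirus at MOI ~0.3, in duplicate, into THAP1-knockout HEK-293T cells carrying mClover3 knocked in at endogenous PSMB5. After five days, BFP+ cells were sorted into GFP-dim and GFP-bright bins, and variants were counted by Illumina sequencing of genomic DNA amplicons. Activity is the replicate-mean bright/dim read fold change divided by the mean of wild-type synonymous constructs.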

THAP1 transcriptional activity: each site, then its substitutions
D113: S 0.697; V 0.277; F 0.135; P 0.638; M 0.24; N 0.681; C 0.573; W 0.173; Q 0.7; L 0.336; T 0.375; E 0.669; Y 0.229; G 0.816; R 0.285; I 0.206
G117: E 1.6; H 0.396; M 0.138; K 0.256; A 0.485; P 1.14; T 0.51; R 0.476; I 0.169; D 0.481; L 0.288; W 0.261; N 0.857; S 0.877; Y 0.262; C 0.534; F 0.352; Q 0.581
N128: A 0.714; C 0.306; F 0.259; E 0.856; D 0.549
L118: Q 1.04; P 1.1; E 0.947; Y 0.871; C 0.498; V 0.976; R 1.19; K 0.884; W 0.319; I 1.1; D 0.991; A 0.723; H 1.01; F 1.09; S 0.509; N 2.21; G 0.954
P126: F 0.178; Q 0.962; T 0.484; R 0.51; I 0.18; H 0.531; E 0.744; L 0.216; Y 0.194; A 0.618; D 1.02; C 0.294; S 1.11; G 0.386; K 0.562; N 0.551; W 0.207; V 0.434
L123: Y 0.693; K 0.809; E 1.45; D 1.45; N 1.54; G 0.957; R 1.45; T 1.44; C 0.584; V 1.01; Q 0.814; S 0.637; F 0.608; I 0.913; W 0.642; A 0.859; P 1.05; H 1.24; M 0.859
Q124: D 0.637; N 0.579; M 0.487; G 0.787; H 0.399; E 0.458; T 0.351; L 0.212; C 0.587; F 0.463; R 0.787; I 0.516; A 0.569; P 0.631; W 0.257; S 0.576; K 0.879; Y 0.592; V 0.643
T125: P 0.865; D 0.713; Y 0.322; W 0.351; G 0.666; Q 0.85; L 0.291; N 0.786; K 1.4; E 1.1; S 0.95; I 0.437; C 0.57; F 0.212; V 0.325; H 0.515; A 1.2; R 0.432; M 0.329
A114: Y 0.291; E 0.768; M 0.387; G 0.748; K 0.546; N 1.35; I 0.238; C 0.678; T 1.27; L 0.635; H 0.483; S 0.612; V 0.296; W 0.317; Q 0.985; D 1.33; F 0.602; P 1.29
L119: H 0.929; F 0.425; E 1.03; S 0.92; M 0.525; K 1.25; C 0.404; N 1.09; W 0.533; D 0.609; Y 0.443; A 0.912; I 1.11; G 0.614; P 1.08; R 0.731; Q 0.718; V 0.5
